Test results reported in US20120045819A1.
Positions of bridges follow the written chain, without caps; N, C: chain ends. No end group written: not given here. *: point of attachment. NHNH2 = NN*

What was measured:
[1] = molecular target: REFACTO® (recombinant factor VIII-like polypeptide consisting of amino acids 1-743 and 1638 through 2332 of human factor VIII) (human) (UniProt P00451); assay: phage ELISA, ratio with target to without target
[2] = molecular target: REFACTO® (recombinant factor VIII-like polypeptide consisting of amino acids 1-743 and 1638 through 2332 of human factor VIII) (human) (UniProt P00451); assay: phage ELISA on the factor VIII target (REFACTO), anti-M13-HRP
[3] = molecular target: REFACTO® (recombinant factor VIII-like polypeptide consisting of amino acids 1-743 and 1638 through 2332 of human factor VIII) (human) (UniProt P00451); assay: batch binding to peptide beads; fractions by sandwich ELISA; % of input
[4] = molecular target: REFACTO® (recombinant factor VIII-like polypeptide consisting of amino acids 1-743 and 1638 through 2332 of human factor VIII) (human) (UniProt P00451); assay: batch binding to peptide beads; fractions by sandwich ELISA; % of total recovered
[5] = molecular target: REFACTO® (recombinant factor VIII-like polypeptide consisting of amino acids 1-743 and 1638 through 2332 of human factor VIII) (human) (UniProt P00451); assay: affinity column, peptide on Toyopearl Formyl 650-M; fraction quantified by RP-HPLC
[6] = molecular target: REFACTO® (recombinant factor VIII-like polypeptide consisting of amino acids 1-743 and 1638 through 2332 of human factor VIII) (human) (UniProt P00451); assay: affinity column, peptide on Toyopearl Formyl 650-M; fraction quantified by factor VIII activity assay

Chain of REFACTO® (recombinant factor VIII-like polypeptide consisting of amino acids 1-743 and 1638 through 2332 of human factor VIII) (human) (P00451 20-762, chain 1 of 2): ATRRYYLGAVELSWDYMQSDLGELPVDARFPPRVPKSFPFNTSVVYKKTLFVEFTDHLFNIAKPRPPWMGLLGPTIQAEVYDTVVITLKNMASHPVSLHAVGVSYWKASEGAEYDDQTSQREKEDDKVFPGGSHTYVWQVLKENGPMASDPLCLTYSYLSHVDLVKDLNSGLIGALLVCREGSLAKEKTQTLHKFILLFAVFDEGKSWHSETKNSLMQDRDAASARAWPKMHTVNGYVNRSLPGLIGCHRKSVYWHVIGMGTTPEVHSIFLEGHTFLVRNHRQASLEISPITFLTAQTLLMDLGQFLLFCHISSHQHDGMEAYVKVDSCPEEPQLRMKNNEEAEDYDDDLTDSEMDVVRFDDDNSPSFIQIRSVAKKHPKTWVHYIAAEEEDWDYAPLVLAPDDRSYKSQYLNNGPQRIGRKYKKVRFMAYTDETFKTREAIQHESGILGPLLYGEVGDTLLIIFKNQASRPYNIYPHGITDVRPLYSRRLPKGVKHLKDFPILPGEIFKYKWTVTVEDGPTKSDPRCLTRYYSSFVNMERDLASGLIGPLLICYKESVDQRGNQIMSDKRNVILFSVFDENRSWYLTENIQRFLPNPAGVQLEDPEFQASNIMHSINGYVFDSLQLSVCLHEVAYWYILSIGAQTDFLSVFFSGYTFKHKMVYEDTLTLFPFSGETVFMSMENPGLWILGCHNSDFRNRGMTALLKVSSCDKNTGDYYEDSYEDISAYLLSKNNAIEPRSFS
Chain of REFACTO® (recombinant factor VIII-like polypeptide consisting of amino acids 1-743 and 1638 through 2332 of human factor VIII) (human) (P00451 1657-2351, chain 2 of 2): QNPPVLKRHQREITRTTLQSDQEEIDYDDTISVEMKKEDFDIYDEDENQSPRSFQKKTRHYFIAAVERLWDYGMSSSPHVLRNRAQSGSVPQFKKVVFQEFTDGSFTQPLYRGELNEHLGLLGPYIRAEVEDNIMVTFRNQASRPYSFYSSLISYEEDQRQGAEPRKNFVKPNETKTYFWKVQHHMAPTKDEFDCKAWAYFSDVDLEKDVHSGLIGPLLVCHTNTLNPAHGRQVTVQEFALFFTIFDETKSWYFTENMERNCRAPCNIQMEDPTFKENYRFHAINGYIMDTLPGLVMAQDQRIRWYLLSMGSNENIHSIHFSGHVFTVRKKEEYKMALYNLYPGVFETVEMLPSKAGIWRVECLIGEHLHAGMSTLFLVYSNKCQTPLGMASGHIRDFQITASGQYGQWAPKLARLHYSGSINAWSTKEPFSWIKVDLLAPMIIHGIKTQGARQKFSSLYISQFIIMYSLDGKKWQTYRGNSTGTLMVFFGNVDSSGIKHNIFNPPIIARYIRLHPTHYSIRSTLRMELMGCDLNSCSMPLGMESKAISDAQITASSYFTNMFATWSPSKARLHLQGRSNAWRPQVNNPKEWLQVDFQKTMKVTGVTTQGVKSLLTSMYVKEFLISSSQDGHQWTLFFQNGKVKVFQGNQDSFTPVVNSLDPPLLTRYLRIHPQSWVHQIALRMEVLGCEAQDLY

Binder: HRCGSWLHPCLA [TN8 phage isolate 11/G10 (A11/G10-TN8)]
- R (ELISA score with target / ELISA score without target) [1]: 6
- ELISA signal [2]: 0.3 OD630

Binder: AEGTGDFCWVFAFDHCHDPGPEGGGS-NHNH2 (disulfide 8-16) [CS-458 (…-NHNH2)]
- % of input recovered in Eluate [3]: 47%
- % of input recovered in Unbound [3]: 20%
- % of input recovered in Wash [3]: 10%
- % of total recovered in Eluate [4]: 27%
- % of total recovered in Unbound [4]: 59%
- % of total recovered in Wash [4]: 14%
- % recovery in Flow [5]: 1.8%
- % recovery in elution A [5]: 54.3%
- % recovery in elution B [5]: 0%
- % recovery in pH2 [5]: 0%
- % recovery in Flow [6]: 1.4%
- % recovery in elution A [6]: 55.6%

Binder: HACGSWFRPCHA [TN8 phage isolate 07 (SEQ ID NO: 15)]
- R (ELISA score with target / ELISA score without target) [1]: 6
- ELISA signal [2]: 0.4 OD630

Binder: FCWVFNWVHCD [TN9/1 phage isolate … (SEQ ID NO: 75)]
- R (ELISA score with target / ELISA score without target) [1]: 14

Binder: AEGTGDFHCIGVWFCLHDPGPEGGGS-NHNH2 (disulfide 9-15 (inferred)) [CS-455 (…-NHNH2)]
- % recovery in Flow [5]: 65.8%
- % recovery in elution A [5]: 1.4%
- % recovery in elution B [5]: 0%
- % recovery in pH2 [5]: 0%
- % recovery in Flow [6]: 61.6%
- % recovery in elution A [6]: 1.3%

Binder: RGCGSWLRPCLD [TN8 phage isolate 05 (SEQ ID NO: 11)]
- ELISA signal [2]: 0.2 OD630

Binder: FHCIGVWFCLH [TN7 phage isolate A09]
- ELISA signal [2]: 0.1 OD630

Binder: PHCNWLFPCSL [TN7 phage isolate D03]
- ELISA signal [2]: 0.2 OD630

Binder: FCHVFNFVHCS [TN9 phage isolate 01 (SEQ ID NO: 31)]
- R (ELISA score with target / ELISA score without target) [1]: 8
- ELISA signal [2]: 0.5 OD630

Binder: HLCFAWFRPCDA [TN8 phage isolate 12 (SEQ ID NO: 17)]
- R (ELISA score with target / ELISA score without target) [1]: 8
- ELISA signal [2]: 0.4 OD630

Binder: FCWVFPFNHCD [TN9 phage isolate 02 (SEQ ID NO: 27)]
- R (ELISA score with target / ELISA score without target) [1]: 8
- ELISA signal [2]: 0.4 OD630

Binder: RLCSWISPCSA [TN7 phage isolate D04]
- R (ELISA score with target / ELISA score without target) [1]: 6
- ELISA signal [2]: 0.3 OD630

Binder: HPCGSWLHPCAA [TN8 phage isolate 04 (SEQ ID NO: 12)]
- R (ELISA score with target / ELISA score without target) [1]: 6
- ELISA signal [2]: 0.3 OD630

Binder: HPCGSWLRPCLH [TN8 phage isolate 10 (C10-TN8)]
- R (ELISA score with target / ELISA score without target) [1]: 16
- ELISA signal [2]: 1 OD630

Binder: AEGTGDFCWVFPFHHCFDPGPEGGGS-NHNH2 (disulfide 8-16 (inferred)) [CS-460 (…-NHNH2)]
- % recovery in Flow [5]: 24.6%
- % recovery in elution A [5]: 28.8%
- % recovery in elution B [5]: 0%
- % recovery in pH2 [5]: 0%
- % recovery in Flow [6]: 28.4%
- % recovery in elution A [6]: 0%

Binder: FCWVFQFRHCH [TN9/1 phage isolate … (SEQ ID NO: 77)]
- R (ELISA score with target / ELISA score without target) [1]: 8

Binder: HLCGAWFRPCDA [TN8 phage isolate 02 (E02-TN8, SEQ ID NO: 16)]
- R (ELISA score with target / ELISA score without target) [1]: 6
- ELISA signal [2]: 0.4 OD630

Binder: HSCGSWLFPCFA [TN7 phage isolate A06]
- R (ELISA score with target / ELISA score without target) [1]: 10
- ELISA signal [2]: 0.5 OD630

Binder: FCHVFHFSHCD [TN9 phage isolate 01 (SEQ ID NO: 24)]
- ELISA signal [2]: 0.2 OD630

Binder: FCWVFPFNHCS [TN9 phage isolate 12 (SEQ ID NO: 28)]
- R (ELISA score with target / ELISA score without target) [1]: 18
- ELISA signal [2]: 1 OD630

Binder: HPCGAWFNPCPR [TN8 phage isolate 01 (SEQ ID NO: 19)]
- ELISA signal [2]: 0.2 OD630

Binder: HPCGSWFRPCFH [TN8 phage isolate 02 (SEQ ID NO: 14)]
- R (ELISA score with target / ELISA score without target) [1]: 16
- ELISA signal [2]: 0.7 OD630

Binder: HPCGAWLRPCYN [TN8 phage isolate 08 (SEQ ID NO: 20)]
- R (ELISA score with target / ELISA score without target) [1]: 20
- ELISA signal [2]: 1 OD630

Binder: RLCSWVSPCSA [TN7 phage isolate C5/G10]
- R (ELISA score with target / ELISA score without target) [1]: 10
- ELISA signal [2]: 0.5 OD630

Binder: FCWVFNFSHCS [TN9 phage isolate 03 (SEQ ID NO: 26)]
- R (ELISA score with target / ELISA score without target) [1]: 24
- ELISA signal [2]: 1.1 OD630

Binder: FCWVFPFHHCF [TN9 phage isolate 06 (D06-TN9)]
- R (ELISA score with target / ELISA score without target) [1]: 6
- ELISA signal [2]: 0.3 OD630

Binder: FCHVFPFLHCD [TN9 phage isolate 11 (SEQ ID NO: 32)]
- ELISA signal [2]: 0.2 OD630

Binder: FCWVFPFQHCA [TN9 phage isolate 09 (E09-TN9)]
- R (ELISA score with target / ELISA score without target) [1]: 24
- ELISA signal [2]: 1.1 OD630

Binder: FCWVHPFAHCL [TN9 phage isolate 02 (SEQ ID NO: 23)]
- ELISA signal [2]: 0.2 OD630

Binder: FCWVFAFDHCH [TN9 phage isolates 04 (B04-TN9) and 01 displaying Phe-Cys-Trp-Val-Phe-Ala-Phe-Asp-His-Cys-His]
- R (ELISA score with target / ELISA score without target) [1]: 24

Binder: FGCSWLFPCPF [TN7 phage isolate A08]
- R (ELISA score with target / ELISA score without target) [1]: 8
- ELISA signal [2]: 0.4 OD630

Binder: AEGTGDHPCGSWLRPCLHDPGPEGGGS-NHNH2 (disulfide 9-16 (inferred)) [CS-453 (…-NHNH2)]
- % recovery in Flow [5]: 0%
- % recovery in elution A [5]: 43.2%
- % recovery in elution B [5]: 0%
- % recovery in pH2 [5]: 0%
- % recovery in Flow [6]: 0%
- % recovery in elution A [6]: 26.4%

Binder: HPCGSWFNPCAH [TN8 phage isolate 02 (SEQ ID NO: 13)]
- R (ELISA score with target / ELISA score without target) [1]: 8
- ELISA signal [2]: 0.3 OD630

Binder: AEGTGDFGCSWLFPCPFDPGPEGGGS-NHNH2 (disulfide 9-15) [CS-456 (…-NHNH2)]
- % of input recovered in Eluate [3]: 24%
- % of input recovered in Unbound [3]: 47%
- % of input recovered in Wash [3]: 20%
- % recovery in Flow [5]: 3.4%
- % recovery in elution A [5]: 44.8%
- % recovery in elution B [5]: 0%
- % recovery in pH2 [5]: 0%
- % recovery in Flow [6]: 4.8%
- % recovery in elution A [6]: 43%

Binder: AEGTGDHLCGAWFRPCDADPGPEGGGS-NHNH2 (disulfide 9-16) [CS-454 (…-NHNH2)]
- % of input recovered in Eluate [3]: 49%
- % of input recovered in Unbound [3]: 24%
- % of input recovered in Wash [3]: 12%
- % recovery in Flow [5]: 2.5%
- % recovery in elution A [5]: 45.1%
- % recovery in elution B [5]: 0%
- % recovery in pH2 [5]: 0%
- % recovery in Flow [6]: 2.2%
- % recovery in elution A [6]: 42.4%

Binder: HGCGAWFRPCHA [TN8 phage isolate 01 (SEQ ID NO: 18)]
- ELISA signal [2]: 0.2 OD630

Binder: AEGTGDFCWVFPFQHCADPGPEGGGS-NHNH2 (disulfide 8-16 (inferred)) [CS-459 (…-NHNH2)]
- % recovery in Flow [5]: 1.6%
- % recovery in elution A [5]: 42.1%
- % recovery in elution B [5]: 0%
- % recovery in pH2 [5]: 0%
- % recovery in Flow [6]: 6.4%
- % recovery in elution A [6]: 31.2%
